For assay [1], the target named is RSV postfusion F (postF), F deltaFP (respiratory syncytial virus, UniProt P03420 26-513). Description: BLI, IgG on sensor.
For assay [2], the target named is RSV fusion glycoprotein (RSV F) on RSV-A2 virus (respiratory syncytial virus, UniProt P03420 26-574). Nature of the assay: cell-based or functional assay.
Assay [3] addresses RSV prefusion F (preF), DS-Cav1 (respiratory syncytial virus, UniProt P03420 26-513). Description: BLI, IgG on sensor, 100 nM antigen. (In BLI a coated tip is dipped into the sample, and binding shifts an interference pattern.)
Assay [4] deals with RSV F on recombinant mKate-RSV A2 virus (Respiratory syncytial virus A2, UniProt P03420 26-574). Nature of the assay: cell-based or functional assay.
In assay [5] the target is RSV F on recombinant mKate-RSV B 18537 virus (Respiratory syncytial virus B 18537, UniProt P13843 26-574). Description: cell-based or functional assay.
In assay [6] the target is T1, RSV postfusion F, subtype B (postF trimer) (Respiratory syncytial virus subtype B, UniProt P13843 26-513).
T1 construct: also called Postfusion subtype B
Description: BLI, IgG apparent affinity.

The target in assay [7] is RSV F on RSV subtype A virus (RSV-A2) (Respiratory Syncytial Virus, subtype A, …, UniProt P03420 26-574). Nature of the assay: cell-based or functional assay.
Assay [8] deals with RSV prefusion F (preF), DS-Cav1 stabilized trimer, subtype A (Respiratory Syncytial Virus, subtype A, UniProt P03420 26-513). Nature of the assay: BLI, IgG on anti-human IgG sensors, 100 nM antigen, apparent KD.

Where only a bound is given, the exact number is not on record here.

B1: ADI-41398 (antibody, V domains shown)
VH: EVQLLESGAEVKKPGASVKVSCKASGYTFTNYGISWVRQAPGQGLEWMGWISAYNGNTNYAQKLQGRVTMTTDTSTSTAYMELRSLRSDDTAVYYCARDGGVIAAATLGYWGQGTLVTVSS
VL: EIVLTQSPLSLPVTLGQPASISCRSSQSLVYSDGNTYLSWFQQRPGQSPRRLIYKISNRDSGVPNRFSGSGSGTDFTLKISRVEAEDVGIYYCMQGIYWPPTFGQGTKVEIK
notes: IgG1; also called Ab 691
Take B1: the binding result in assay [1] is listed as “no binding (tested: 100 nM antigen)”. In addition, in assay [2], the “Neutralization IC50 (RSV subtype A)” value was 0.17 µg/mL. The molecule further returned a Kd in assay [3] of 0.6 nM.

B2: ADI-41352 (antibody, V domains shown)
VH: EVQLVESGGGLVQPGGSLRLSCAASGFTFSSYRMNWVRQAPGKGLEWVSYIDISSSTIYYADSVKGRFTISRDNAKNSLYLQMNSLRAEDTAVYYCARDQLVWEPLIRNHYYYAMDVWGQGTTVTVSS
VL: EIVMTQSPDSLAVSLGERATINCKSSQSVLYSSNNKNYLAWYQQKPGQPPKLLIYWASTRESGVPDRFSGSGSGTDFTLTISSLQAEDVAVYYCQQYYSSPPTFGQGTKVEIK
notes: IgG1
For B2, in assay [1], the binding result is listed as “no binding (tested: 100 nM antigen)”. Further, the “Neutralization IC50 (RSV subtype A)” value in assay [2] was more than 25 µg/mL. The Kd in assay [3] is 3.36 nM.

B3: ADI-21082 (antibody, V domains shown)
VH: EVQLVESGGGLVKPGGSLKLSCVASGLKFSSYSMNWVRQAPGKGLEWVSSVSAGSSYTNYADSVKGRFTISRDNAKNSLYLQMNSLRVDDTAVYYCATERCSGGSCYLHGFDPWGQGTTVTVSS
VL: QSVLTQPPSVSGAPGQRVTISCTGSSSNIGAGYDVHWYQQLPGTAPKLLIFDNIIRPSGVPDRFSGSKSGTSASLAITGLQADDEADYYCQSYDKSGDYVFGTGTKVTVL
For B3, the “Neut IC50 (ug/ml) subtype A” value in assay [4] worked out at 0.09 µg/mL. Moreover, in assay [5], the “Neut IC50 (ug/ml) subtype B” value was 0.25 µg/mL. In assay [6], the Kd was found to be 6.17 nM.

B4: ADI-41401 (antibody, V domains shown)
VH: EVQLLESGGGLVHPGRSLRLSCAASGFTFGDYAMHWVRQAPGKGLEWVSGISWNSDTIEYADSVKGRFTISRDNAKNSLYLQMNSLRAEDTALYYCAKDFGSSWEAYFDYWGQGTLVTVSS
VL: DIVLTQSPSYLSASVGDRVTITCRASQSISTYLNWYQQKPGKAPKLLISAASSLQSGVTSRFSGSGSGTDFSLTISSLQPEDFATYYCQQSYSTALTFGGGTKVEIK
notes: IgG1
On to B4, for which the binding result in assay [1] is reported as “no binding (tested: 100 nM antigen)”. For the same molecule, the “Neutralization IC50 (RSV subtype A)” value in assay [2] was more than 25 µg/mL. In assay [3], this molecule registered a Kd of 3.22 nM.

B5: ADI-21064 (antibody, V domains shown)
VH: EVQLVESGGEVKKPGASVKVSCKASGYIFSNHGVSWVRQAPGQGLEWMGWISAYNGNAIYAQNLQGRVTLTTDTSTSTAYMELTSLTSDDTAIYYCARESGATAAAVMDYWGQGTLVTVSS
VL: DIVLTQTPLSLPVILGQPASISCRSSQSLVYSDGNTYLTWFQQRPGQSPRRLIYKVSNRDSGVPDRFSGSGSDTDFTLKISRVEAEDVGVYYCMQGIDWPRTFGQGTKVDIK
In the case of B5, the “Neut IC50 (ug/ml) subtype A” value in assay [4] is 0.03 µg/mL. Moreover, in assay [5], the “Neut IC50 (ug/ml) subtype B” value was determined as 0.12 µg/mL. Further, in assay [6], the binding result is “no binding”.

B6: ADI-21072 (antibody, V domains shown)
VH: QVQLVQSGGGLVKPGGSLRLSCEASGFNFRSYHMSWVRQAPGKGLEWVSSITAGSSYINYADSVKGRFTISRDNAKNSVFLQMNSLSAEDTAVYYCAREGLNMGVGGTWFDPWGQGTLVTVSS
VL: QAVVTQEPSVSGAPGQRVTISCTGSSSNIGAGYDVHWYQQLPGTAPKLLIYGNNNRPSGVPDRFSGSKSATSASLAITGLQADDEADYYCQSYDRSLSGSWVFGTGTKVTVL
As to B6, in assay [4], the “Neut IC50 (ug/ml) subtype A” value worked out at 0.04 µg/mL. For the same molecule, in assay [5], the “Neut IC50 (ug/ml) subtype B” value came out at 0.33 µg/mL. In assay [6], the binding result is on record as “no binding”.

B7: ADI-21077 (antibody, V domains shown)
VH: QVQLVESGGGLVKPGGSLRLSCVVSGFTFRDYYMSWIRQAPGKGLEWISYISPSSTYTNYADSVRGRFTISRDNAENSLYLQMNSLRAEDTAVYYCARVNIAATGAGGVFLDYWGQGTTVTVSS
VL: QPVLTQPPSVSGAPGQRVTISCAGSSSNIGAGYDVHWYQQLPGTAPKLLIYGNINRPSGVPDRFSGSKSGTSASLAITGLQAEDEADYYCQSYDSSLSGSYVFGTGTKVTVL
For B7, the “Neut IC50 (ug/ml) subtype A” value in assay [4] is 0.06 µg/mL. For the same molecule, the “Neut IC50 (ug/ml) subtype B” value in assay [5] came out at 0.06 µg/mL. Further, the binding result in assay [6] is “no binding”.

B8: ADI-21065 (antibody, V domains shown)
VH: EVQLLESGGGLVQPGGSLRLSCAASGFTFSSYAMNWVRQAPGKGLEWVSGISGSGESTYYADSVKGRFTISRDSSKNTVYLQMNSLRADDTAVYYCAKDQGYGVVVPAATRALPPRRYGMDVWGQGTTVTVSS
VL: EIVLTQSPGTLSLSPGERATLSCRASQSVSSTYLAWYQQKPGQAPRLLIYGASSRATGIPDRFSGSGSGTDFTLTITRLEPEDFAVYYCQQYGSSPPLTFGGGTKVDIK
For B8, in assay [6], the binding result is recorded as “no binding”.

B9: ADI-21075 (antibody, V domains shown)
VH: EVQLVESGGGLVKPGGSLRLSCAASGFSFSNYYMSWVRQAPGKGLEWISYISGGSTYANLADSVKGRFTISRDNTKNSMYLQMTSLRPDDTAVYYCARIHGTHGPFYFDYWGQGTLVTVSS
VL: QSVLTQPPSVSGAPGQRVTISCTGSSSNIGAGYDVHWYQQLPGTAPKLLIHANSNRPSGVPDRFSGSKSGTSASLAITGLQAEDEADYYCQSYDNSLNAYYVFGTGTKLTVL
notes: also called Ab 320
With B9, the “Neut IC50 (ug/ml) subtype A” value in assay [4] turned out to be 0.03 µg/mL. Besides, the “Neut IC50 (ug/ml) subtype B” value in assay [5] amounted to 0.48 µg/mL. Moreover, the binding result in assay [6] is on record as “no binding”.

B10: ADI-21089 (antibody, V domains shown)
VH: EVQLLESGGGLVKPGGSLRLSCVASGFRFTSYSMNWVRQAPGKGLEWVSSISASSSYVDYADSLKGRFTISRDNAQNSLFLQMNSLRAEDTAVYYCARDYYDSGNYHSPFPMDVWGQGTTVTVSS
VL: QSVLTQPPSVSGAPGQRVTISCTGSRSNIGAGYDVHWYQQLPGTAPKLLIYGNNKRPSGVPDRFSGSKSGTSASLAITGLQAEDEADYYCQSYDSGPIFGGGTKVTVL
On to B10, for which the “Neut IC50 (ug/ml) subtype A” value in assay [4] was found to be 0.27 µg/mL. For the same molecule, the “Neut IC50 (ug/ml) subtype B” value in assay [5] was found to be 0.17 µg/mL. Further, the Kd in assay [6] was found to be 3.34 nM.

B11: ADI-21079 (antibody, V domains shown)
VH: EVQLLESGGGLVKPGGSLRLSCAASGFTFSDYYMSWIRQAPGKGLEWVSNISGGSTYTNYADSVKGRFTISRDNAKNSLYLQMNSLRAEDTAVYYCAREAYGSGNYYNPNWLDPWGQGTLVTVSS
VL: QSVLTQPPSVSGAPGQRVTISCTGSSSNIGAGYDVHWYQQLPGTAPKLLIYGNRNRPSGVPDRFSGSKSGTSASLAITGLQAEDEADYYCQSYDSSLSGSVFGGGTKLTVL
For the molecule B11, the “Neut IC50 (ug/ml) subtype A” value in assay [4] amounted to 0.2 µg/mL. In addition, in assay [5], the “Neut IC50 (ug/ml) subtype B” value turned out to be 0.29 µg/mL. For the same molecule, the binding result in assay [6] is “no binding”.

B12: ADI-21081 (antibody, V domains shown)
VH: EVQLLESGGGLVKPGGSLRLSCAASRFAFSNYYMTWIRQAPGKGLEWISNISGGSTFTNYADSVKGRFTISRDNAKNSVHLQMNSLRAEDTAVYYCVREASVAAGTPEGFDIWGQGTMVTVSS
VL: QSVLTQPPSVSGAPGQRVIISCTGSSSNIGAGYDVNWYQQLPGTAPKLLMYGNRNRASGVPDRFSGSKSGTSASLAITGLQAEDEADYYCHSYDSSLGGSVFGGGTKLTVL
notes: also called Ab 326
On to B12, for which the “Neut IC50 (ug/ml) subtype A” value in assay [4] turned out to be 0.1 µg/mL. Besides, the “Neut IC50 (ug/ml) subtype B” value in assay [5] turned out to be 0.32 µg/mL. Besides, the binding result in assay [6] was “no binding”.

B13: ADI-21086 (antibody, V domains shown)
VH: EVQLVETGGGLVKPGGSLRLSCAASPFAFSNYYMSWIRQAPGKGLEWISNISGGSTFTNYADSVKGRFTISRDNARNSLYLLMNNLRTEDTAVYYCAREASVAAGTPEGFDVWGQGTTVTVSS
VL: QSVVTQPPSVSGAPGQRVTISCTGSSSNIGAGYDVNWYQQFPGTAPKLLIYGNRNRPSGVPARFSGSKSGASASLAITGLQAEDEADYYCHSYDSGLSGSVFGGGTKLTVL
Take B13: in assay [4], the “Neut IC50 (ug/ml) subtype A” value is 0.11 µg/mL. In assay [5], the “Neut IC50 (ug/ml) subtype B” value came to 0.47 µg/mL. The binding result in assay [6] was “no binding”.

B14: ADI-41377 (antibody, V domains shown)
VH: QVQLQQSGPGLVKPSQTLSLTCAISGDSVSSDSATWNWIRQSPSRGLEWLGRAYYRSKWYYDYAPSVKSRLTINPDTSKNQFSLQLTSVTPQDTAVYFCARDLPPLEYFDGSGYYFLDHWGQGTLVTVSS
VL: SYELTQPPSVSVAPGQTARLSCGGHNIGSKSVQWYQQKPDQAPVLVVYDDHDRPSGIPDRFSGSNSGDMATLTISRVEAGDEADYYCQVCESGRDPMVFGGGTKVTVL
notes: IgG1; also called Ab 674
In the case of B14, in assay [1], the binding result is “no binding (tested: 100 nM antigen)”. Also, the “Neutralization IC50 (RSV subtype A)” value in assay [2] stood at 0.24 µg/mL. For the same molecule, the Kd in assay [3] worked out at 1.74 nM.

B15: ADI-41356 (antibody, V domains shown)
VH: QVQLVQSGAEVKKPGASVKVSCKASGYTFTNYDINWVRQATGQGLEWMGWMNRNNGNTGYARKFQGRVTMTRNTSISTAYMELSSLRSEDTAVYYCARGGDFYAMDVWGQGTTVTVSS
VL: SYELTQPPSVSVSPGQTASITCSGDKLGDKYASWYQQKPGQSPVLVIYQDTKRPSGVPERFSGSNSGNTATLTISGTQAVDEADYYCQVWDGSIAFGGGTKVTVL
notes: IgG1
Turning to B15, the binding result in assay [1] is “no binding (tested: 100 nM antigen)”. Also, the “Neutralization IC50 (RSV subtype A)” value in assay [2] came to 0.115 µg/mL. For the same molecule, the Kd in assay [3] was determined as 0.725 nM.

B16: ADI-41828 (antibody, V domains shown)
VH: EVQLVESGGGLVQPGGSLRLSCADSDFTFSTYSMNWVRQAPGKGLEWISYITGRSSAIYYADSVKGRFTISRDNAKNSLFLQMNSLRAEDTAVYYCTTFMAGYSFGHGDAFDIWGQGTTVTVSS
VL: SYELTQPPSVSVAPGQTARITCGGNNIGSKSVHWYQQKPGQAPVLVVYDDSDRPSGIPERFSGSNSGNTATLTISRVEAGDEADYYCQVWNSNSDHPHWVFGGGTQLTVL
For the molecule B16, the “Neutralization IC50 (RSV subtype A)” value in assay [7] is 5.53 µg/mL. Besides, the Kd in assay [8] came to 0.241 nM.

The values are drawn from patent publication US20260258115A1 (MAPP BIOPHARMACEUTICAL, published 2026).
